Data reported in US20140088023A1 (UNIVERSITY OF TOLEDO, published 2014).
Ends that are not written are not given here.

target: T1, soluble guanylyl cyclase alpha 1 (sGCα1) (UniProt Q02108 1-690); assay: competitive binding assay
T1 construct: The assay field of each row says which; No construct limits or tags are stated; also called endogenous sGCα1; E. coli-expressed sGCα1
T1 sequence (looked up): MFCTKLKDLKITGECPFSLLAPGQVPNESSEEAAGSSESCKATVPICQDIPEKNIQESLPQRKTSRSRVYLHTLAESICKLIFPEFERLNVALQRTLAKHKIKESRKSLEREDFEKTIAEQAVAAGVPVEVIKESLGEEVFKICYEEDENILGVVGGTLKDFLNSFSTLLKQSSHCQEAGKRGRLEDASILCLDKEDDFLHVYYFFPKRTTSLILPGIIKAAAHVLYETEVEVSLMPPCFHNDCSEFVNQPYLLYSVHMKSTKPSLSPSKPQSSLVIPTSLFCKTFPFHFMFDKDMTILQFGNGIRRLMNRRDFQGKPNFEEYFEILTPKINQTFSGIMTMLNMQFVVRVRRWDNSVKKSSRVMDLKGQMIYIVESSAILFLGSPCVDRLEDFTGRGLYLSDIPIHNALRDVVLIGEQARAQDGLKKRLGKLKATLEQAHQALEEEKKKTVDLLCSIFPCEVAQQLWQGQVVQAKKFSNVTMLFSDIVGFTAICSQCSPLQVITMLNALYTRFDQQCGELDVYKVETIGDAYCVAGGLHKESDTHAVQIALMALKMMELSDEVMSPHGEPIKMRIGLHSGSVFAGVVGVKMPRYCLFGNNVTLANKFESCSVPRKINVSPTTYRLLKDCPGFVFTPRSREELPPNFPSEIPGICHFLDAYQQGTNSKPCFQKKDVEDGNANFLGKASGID

KAFPRRRRRRRR [Peptide KP4-8R]: no binding.

target: T1, soluble guanylyl cyclase alpha 1 (sGCα1); assay: cell-based or functional assay

Point of comparison: FCAAFRRRRRRRR-NH2 [Peptide FF5-K3A-8R], “IC50 (µM), cytotoxicity, Day 3, LNCaP cell culture” value 60 µM. Against it:
- ACKAFRRRRRRRR-NH2 [Peptide FF5-F1A-8R] — 3.3-fold higher, 200 µM
- CKAFRRRRRRRR-NH2 [Peptide CF4-8R] — within 1.5-fold, 62 µM
- FCKARRRRRRRR [Peptide FA4-8R] — within 1.5-fold, 43 µM
- FCKAARRRRRRRR-NH2 [Peptide FF5-F5A-8R] — 2.7-fold higher, 160 µM
- FAKAFRRRRRRRR-NH2 [Peptide FF5-C2A-8R] — 3.5-fold higher, ~210 µM
- Ac-TFCKAFPFHIIRRRRRRRR-OH [Peptide A-8R] — 7.5-fold lower, 8 µM
- TFCKAFRRRRRRRR-NH2 [Peptide TF6-8R] — 3.3-fold lower, 18 µM
- TFCKAFPRRRRRRRR-NH2 [Peptide TP7-8R] — 3.8-fold lower, 16 µM
- FMKAFRRRRRRRR-NH2 [Peptide FF5-C2M-8R] — 1.5-fold higher, 90 µM
- TFCRRRRRRRR [Peptide TC3-8R] — within 1.5-fold, 72 µM
- FCKAFPRRRRRRRR-NH2 [Peptide FP6-8R] — 2.7-fold lower, 22 µM
- FCKAFRRRRRRRR-NH2 [Peptide FF5-8R] — 2.7-fold lower, 22 µM

Point of comparison: Ac-TFCKAFPFHIIRRRRRRRR-OH [Peptide A-8R], “IC50 (µM), cytotoxicity, Day 6, LNCaP cell culture” value 16 µM. Against it:
- ACKAFRRRRRRRR-NH2 [Peptide FF5-F1A-8R] — 10-fold higher, 160 µM
- CKAFRRRRRRRR-NH2 [Peptide CF4-8R] — 7.5-fold higher, 120 µM
- FCKARRRRRRRR [Peptide FA4-8R] — 5.6-fold higher, 90 µM
- FCKAARRRRRRRR-NH2 [Peptide FF5-F5A-8R] — 7.5-fold higher, 120 µM
- FCAAFRRRRRRRR-NH2 [Peptide FF5-K3A-8R] — 2.4-fold higher, 38 µM
- FAKAFRRRRRRRR-NH2 [Peptide FF5-C2A-8R] — 9.1-fold higher, 145 µM
- TFCKAFRRRRRRRR-NH2 [Peptide TF6-8R] — 1.8-fold higher, 28 µM
- TFCKAFPRRRRRRRR-NH2 [Peptide TP7-8R] — within 1.5-fold, 23 µM
- FMKAFRRRRRRRR-NH2 [Peptide FF5-C2M-8R] — 4.1-fold higher, 65 µM
- TFCRRRRRRRR [Peptide TC3-8R] — 8.8-fold higher, 140 µM
- FCKAFPRRRRRRRR-NH2 [Peptide FP6-8R] — 2.2-fold higher, 35 µM
- FCKAFRRRRRRRR-NH2 [Peptide FF5-8R] — 2.5-fold higher, 40 µM
